Experimental data published in the DeepSol protein solubility set.

assay: soluble on expression in E. coli; label from the status in PepcDB or PDB records

Sequence	soluble on expression in E. coli
MEIALERIYGHRLALPQVGAALLFAQEAPPALLLVPEARLRRYRDLSAFGAKVYVNPGLEALEEKALFVLSYEEALSPFPEDPEAWRLLLEVGRAYPREALLSRLLKLGYARDEDYRVLGEVVELGEVRLEFFGDELERLVVRGEERRRHVLLPKPGKAEGFTSKKVLHFPGPVYLDTPALAPKALWPLLAGRPWVALGGGVELPPLELGARPLPPYRGSLKALEKDLARWLAEGKRVHLFVGHARTLEYLKRRLQAFSPLILDRFPGPKGRLALLPGDFEGGAEWGEWVLLTEALVFATGGVRARVRVGEGLSDPGALSPGDYLIHPEHGVGQYLGLETREVLGVKRDYLVLRYKGEGKLYLPVEQLPLLKRHPGTTDDPPELSSLGKNEWQRAKERARKDVEELAGRLLVLQAKRKATPGRAFPPLPEWDPLVEKGFPYELTPDQKRALEEVLRDLESPHPMDRLVSGDVGFGKTEVALRAAHRVVGHGAQVAFLGPTTLLAEQHGKTFRERFQGLPVRVAVLSRFTPPKEEEAILKGLAEGTVDIVIGTHRLLQEDVRFRDLGLLIVDEEHRFGVAQKERIRELKAEVDTLYLSATPIPRTLYSALVGLKDLSSIQTPPPGRKPIKTFLAPFDPLLVREAILFELERGGKVFYVHDRVASIEARRRFLENLVPEARIGVVHGQMPESLIEETMLLFAEGAYDVLLATTIIEAGLDVPEANTILIERADRLGLATLYQLRGRVGRREEEAYAYLFHPPRLTEAAEKRLAAIADLSDLGSGHLLAERDMEIRGVGNLLGPEQHGHIRALSLEVYTELLEEAIRKLKGEAKEERRHVTLDLALSARLPAEYVGSLEARSRYYSRFAEAKSLAELSRLVRELKERYGPLPEEAENFVALARLRLVAERKGVVSITEGLTHLEVVFPRYPLDYDARGLKGLPYRVELTQYPPGFRLEKKGLRPRDYPEALMEVLYLFADL	soluble
MEIEDGFYLIDDSNHDEDLDFSDFPWLDPDHPLFFPATQANNSKGSTRWDAVNKFSVENWYPHLRKHTFKSHFITLNYNDIHYLMGNIPPDYDSSKLESIFNKILSEFNNKEVFMRLSTRSPKDSKFLFEEASTIMSKDFVYWNENDNKHQQLVSFVASMLKAMKIKSGRKIIETIAQSPRVYNDLLALVSSSNQSDCTTNVILREWHDIRPDHEFRVFVSRRHRKESIVTAISQYFHFLYFDKSPADCFNFLDEEDKKAVIKKFENYVLKSVDPDVAKFLNFSSEQDDDESSDCIREYIVDLALIPVSQYHGEITDENIIEIGANTYVMVVIELNPFAPAATGSGLEHHHHHH	not soluble
MEIFEKIRSLRKNHNLSQEEIADKINLSVSGYRKIENGKSRINHKRLEQIAEALEVSPLDLIPNSWRHGSSVYQVGKNGFYGDSSRAIEIELLKQQIKQEQLIKAKDETIEDKNRLISRLEEMLKILNT	not soluble
MEIFLSDPISAECPCGPDLEYDPEYLLLFTRAAPREEAQYGDFVSTPENINWAELERDAHRLLMRSKDIRILVVLLRCRIQQAGARGLSEALTLLETLCSTYPDAIHPQLLATEDITAEDAAVARSNALAALLDHEGVMADIRGITLSNNAAMRLQVRDVERSLSALRPADALAPESVRQQLADLEARGTLPLDAFRQAAETTERLQRHARETLNDQAPDFSRLTQLLALLPGAVQSTTPEILPQPQAEQPENATIVHTEQMQAEQIALPVHIAEEISPMTGAEPRQIRDRNDALERLRVIRRWFEHSEPSSPTIPLLRQAERLVGKRVSEVINEIPVELLEKWDALE	not soluble
MEIQFLGTGAGVPAKHRNVTGIALKLLDERNAVWLFDCGEGTQLQILKSSIRPRKIEKIFITHLHGDHIFGLPGLLSSRSFQGGTEPLEIYGPVGIADFVKTSLRVSQSRLSYPLKFIELTKENDVIFKDKQFTVRCNILDHGITSFGYRIEEAAHEGELQVEKLQALGIPSGPLYGKLKRGETIVFDGQEINGQAFVGERKPGRIVTILGDTRKTKNSVTLARRADVLVHESTFNKHEAKMAKAYFHSTSQQAAEVAKEAQVKQLILTHISARYLTKEAYQLQEEAQEIFPNTKIVKDMDIIEIPFANEGGA	not soluble
MEISNVYVPPRSSSSNHARLMTDFSNIFQTKSKSIISGDVNAHHSAWHSEGSEDTRGRELAELIDLHPDLIIQNEQVHTRADTYSISSPDITICTADLATKCHWSTLYKLGSDHIPMKLKINQAATPKRPKRLVANFKKANWQLFRDHIESRINGYSGPMDAIPMEKFFNKVILEADKKAVPKGSIDPKLKVDPKPLRLLAKEIADRETRNPLDPEIPILTRELATKRAERKNSEWRKKAHDQNAKRKSDVSSFWKLIKGVTKGRQYKGPVAFGDGLPKTGATIANKMAKSLVEAGRTKISHDEELKWRKNVRRNKRISKIAPLQDRITSIELHNMAIKMSPSAAIGPDGIAQIHIRKLPMCGYSFLAYLYNVSLSTNIIPDKWKKANVIMIPKPKKDPAIASSYRPISLLSPIAKLLEKAILKRIKNSIESPAHQHGFKPEHSTTTAVIQVTNDIIGGLNMKNPPERAIMACLDLRAAFDKVPTKKLCNDLMEAQGIEPKIKLWLGNYLHKRLIRTSHDNHWSKWHTLLGGVPQGSVISPNLFTFYLKDMPTQQDTMLISYADDMSIIARDKKIEKAAEKVQLHIDEIAKYLKERGMSISAEKSTVTVFSCDPKEHKTKPDIYWMDDPIPVINAPKLLGITLNTMTGTKDHVGNAIKSMQNKTRVIKSMAGTSWGNDRETMLYTTQALIKPTALYGAPAWTSLLSDTNLEKLEIAYRSALRACVGLTKDTPTDHIYQECRVLPLKEEYKLATQQMYLAAIKSNTHPCRDLKAKGQLERTSKPPRIPPLKLSDSEKLRLDNIPGDKTETQKKNHTKLVADFIRNAPNNRILNKPPPRVNYRDERTLPKETRCELARLRCGHSLLVEKYKARLEERQIKKCLNCGDEEGDVQHLLSCLQTPVPLEELWTSPLTVAAALGLPTKTPFDPGGGH	not soluble
MEKDHSSLFYYDQYSKFSRSSQGCRSLNKFSRFNNFRTSACFFDASKPKSDVQPFKKIRYSSEHGCLTMSFDSPSSCPSTSFLCDLSQNLVRGNAHIPKFYTRDLISTIGSRDHYSVDLIPKFGENTSIMKDFKDWGTDLSLQM	not soluble
MEKDISRKIDLLNILIEEKRWFTLFELEKNLNCSSKTIRKDISIINDLLPKTIFIHSKKGKGVKLSLPQNQSISEAISNLLKKSLTFLAIQQLLEERSNTVTSLADKLYLPISSTNIVLKRVSKYIKKFGLSLEKKPLRIVGDEFQIILMFSERYLESYPDTEWPFTEYKEEMLIDYINYIEEKLEIVFYSNDKRRMAFIMTILFKRIKQGHKVKFSEWIIKETMESIYYKKIFEGKNVIKVNKNRSLNIEEQVLLVIMVKLSRYVSKDENNLKQEELVLYKEGESTTYTYVKNFISILEQELKIDLNNNEEFVYGMIEYCREAFHILKFIPILKAPEKDTCKYIKKHYEETFYLVKRAYNKWGAEMKLTDIPDEEIAKVTMRIVAIGKQHNINRKKVLLITGEGKSWEEYMKSRINKRYGDQLKFVGGHAKILNGNTDNIDNIDIDFIITTVPLNFSWKSIVYVSPILQERDFYEIGIFASK	not soluble
MEKDLQLRVNEKLDVENILKDLDKYTPKRRGWTWRQPAENLQMGPFIYKDASTPLENSVALPSAKYFGDIDPQPLPVITTEIASGRFEDDIRRMRMAAWHGADHIMVIRTAGQSHYDGLIEGTPQGIGGVPITRKQVRAQRKALDLIEEEVGRPINYHSYVSGVAGPDIAVMFAEEGVNGAHQDPQYNVLYRNINMIRSFIDACESKTIMAWADMAQIDGAHNANATAREAWKVMPELMVQHALNSIFSLKVGMKKSNICLSTVPPTAPPAPSMYLDLPYAVALREMFEGYRMRAQMNTKYMEASTREATVTHVLNLLISKLTRADIQSTITPDEGRNVPWHIYNIEACDTAKQALIGMDGLMDMVQLKREGVLGDTVRELKERAVLFMEEIIEAGGYFNAVEQGFFVDSGYYPERNGDGIARQINGGIGAGTVFERDEDYMAPVTAHFGYNNVKQYDEALVSEPSKLIDGCTLEVPEKIVYIDELDENDNVNVRMEETKEFRHSSMIKPEVEWQADGTVLLTMFLPTSKRVAEFAAIEFAKKMNLEEVEVINREVMQEAEGTRIELKGRVPFSIDINSLVIPPEPEILSEDEIREDIEKTPLKIVAATVGEDEHSVGLREVIDIKHGGIEKYGVEVHYLGTSVPVEKLVDAAIELKADAILASTIISHDDIHYKNMKRIHELAVEKGIRDKIMIGCGGTQVTPEVAVKQGVDAGFGRGSKGIHVATFLVKKRREMREGKSEDPNSSSVDKLAAALEHHHHHH	soluble
MEKEGFARLFHNFDNVIEPKLCSTSGSVPSYLKGTMLRNGPGMFEIGDTKYQHWFDGMGFIQRYHFEDGKMYYSARYLESENYKKNMEAQRIVTGSFGTASFPDPCKSIFSRFFSSFVQSEGIHDNANVAFAPVGDGLYACTETPNMHRVDLDSLDTLEPVDFSKYVALHTCTAHQLFDENGDVYNIGSRFGPDAAHVFTVTKNPKNLQSDSDRSWEHTTKIGEIRCSETFYPTYMHSFGMSENYLIMFESPIRIDIKKFIMKRFITTTFRDCMKWHADKDVKIFILNKKTGEQVPLKLKMAPFFTFHHANTFERDGCLVVDYCRIEQAGNFDALLIENMKTGNFQNDALFLPYLTRVIIPLSIPDGAQPGDDLLKPLGWAKGCSAIFQDDGKIRLKEKRVCDISMEFPRYHWEKINMKPYNYVYGSSVLGAQKSETLPGIVKADLENGDHKVWRRENDKQICGEPIFVPNPEGVREDDGILIVPVMTISDGQRPFVLILEAKNLTEIARYTIPEARIPLGFHAFYQGRT	not soluble
MEKIIEVNSVSKTFKHKKAVNNVSFHVNKGEIVALLGPNGAGKTTTMSMMLGLKDPTEGTVSIFGKNPKHRDVRNSLGAMLQEVSVIDSITVEEAIELFRSYYTNPVAKETLLQLSNLELERKQRCEKLSGGQKRRLNFALALAGNPDLLFLDEPTVGMDITSRRTFWETIRKLVSEGKTIILTTHYLEEADALADRILLFVNGKIIADGTPDEMKATISRKTISFYSKESIPAKLLKELPNVTEVQAKEGHFTLTTEDTDATLKAIYQKNLPVTDVSVERGSLDEAFEQFVANQKEEIA	not soluble
MEKISDLIECIAYEKNLPKEMISKVIQGCLLKMAQNELDPLARYLVVEENKQLQLIQLVEVLEDGDERLVNDPSKYISLSKAKEMDPSVKIKDELSYSLSLESMKQGAINRLFKDLQYQLEKALEDSHFEAFQKRLNSVLMGQVILVDHNQNTFIEIEQQFQGVLSMRHRIKGESFKVGDSIKAVLTQVKRTKKGLLLELSRTTPKMLEALLELEVPEIKDKEIEIIHCARIPGNRAKVSFFSHNARIDPIGAAVGVKGVRINAISNELNKENIDCIEYSNVPEIYITLALAPAKILSVEIKKIPIEELNAEEKESIQERFIVNNHLQKAKVRLLDIEKSKAIGKGGVNVCLASMLTGYHIEFETIPSVKENAENESEKETPKVGVEALESLFKN	not soluble
MEKLLIEGGRALNGTIRVSGAKNSAVALIPATILADTPVTIGGVPNISDVKMLGDLLEEIGGRVTYGQEEEMVVDPSNMVAMPLPNGKVKKLRASYYLMGAMLGRFKKAVIGLPGGCHLGPRPIDQHIKGFEALGAHVTNEQGAIYLRADELRGARIYLDVVSVGATINIMLAAVRAKGRTVIENAAKEPEIIDVATLLTSMGARIKGAGTDVIRIDGVDSLHGCHHTIIPDRIEAGTYMILGAASGGEVTVDNVIPQHLESVTAKLREAGVQVETNDDQITVNGDRRLKVVDIKTLVYPGFPTDLQQPFTTLLTKAHGTGVVTDTIYGARFKHIDELRRMNAQIKVEGRSAIVTGPVLLQGAKVKASDLRAGAALVIAGLMADGITEVTGLEHIDRGYENIVDKLKGLGANIWREQMTKQEIEEMKNA	not soluble
